{
  "source": "paper PMC10286367",
  "proteins": {"B1": {"name": "NF-κB p65: Ogt cKO (protein)", "parent chain": "MDDLFPLIFPSEPAQASGPYVEIIEQPKQRGMRFRYKCEGRSAGSIPGERSTDTTKTHPTIKINGYTGPGTVRISLVTKDPPHRPHPHELVGKDCRDGYYEADLCPDRSIHSFQNLGIQCVKKRDLEQAISQRIQTNNNPFHVPIEEQRGDYDLNAVRLCFQVTVRDPAGRPLLLTPVLSHPIFDNRAPNTAELKICRVNRNSGSCLGGDEIFLLCDKVQKEDIEVYFTGPGWEARGSFSQADVHRQVAIVFRTPPYADPSLQAPVRVSMQLRRPSDRELSEPMEFQYLPDTDDRHRIEEKRKRTYETFKSIMKKSPFNGPTEPRPPTRRIAVPTRNSTSVPKPAPQPYTFPASLSTINFDEFSPMLLPSGQISNQALALAPSSAPVLAQTMVPSSAMVPLAQPPAPAPVLTPGPPQSLSAPVPKSTQAGEGTLSEALLHLQFDADEDLGALLGNSTDPGVFTDLASVDNSEFQQLLNQGVSMSHSTAEPMLMEYPEAITRLVTGSQRPPDPAPTPLGTSGLPNGLSGDEDFSSIADMDFSALLSQISS"}, "B2": {"name": "NF-κB p65: OE-Ogt (protein)", "parent chain": "B1 parent chain"}, "B3": {"name": "NF-κB p65: S384A (protein)", "parent chain": "B1 parent chain"}, "B4": {"name": "NF-κB p65: S374A (protein)", "parent chain": "B1 parent chain"}, "B5": {"name": "NF-κB p65: S370A (protein)", "parent chain": "B1 parent chain"}, "B6": {"name": "NF-κB p65: S396A (protein)", "parent chain": "B1 parent chain"}, "B7": {"name": "NF-κB p65: Ogt KD (protein)", "parent chain": "B1 parent chain"}},
  "key": {"[1]": {"assay": "WB of cytoplasmic and nuclear fractions", "details": "glycan lost; control: Ctrl astrocytes"}, "[2]": {"assay": "WB of total p65, cultured astrocytes", "details": "glycan lost; control: Ctrl astrocytes"}, "WB, cultured astrocytes": {"assay": "WB, cultured astrocytes", "details": "glycan lost; control: Ctrl astrocytes"}, "IP-WB in N2a cells": {"assay": "IP-WB in N2a cells", "details": "glycan lost; control: wild-type p65-HA"}},
  "data": [
    {"protein": "B1", "values": [
      {"measurement": "localisation_or_trafficking", "setting": "[1]", "result": "changes"},
      {"measurement": "expression_or_secretion", "setting": "[2]", "result": "no change"},
      {"measurement": "other: p65 phosphorylation (p-p65 level)", "setting": "WB, cultured astrocytes", "result": "increases"}
    ]},
    {"protein": "B2", "values": [
      {"measurement": "other: p65 phosphorylation (p-p65 level)", "setting": "HA IP-WB in N2a cells; glycan gained, control: N2a cells without ectopic Ogt", "result": "decreases"}
    ]},
    {"protein": "B3", "values": [
      {"measurement": "other: p65 phosphorylation (p-p65 level)", "setting": "IP-WB in N2a cells", "result": "increases"}
    ]},
    {"protein": "B4", "values": [
      {"measurement": "other: p65 phosphorylation (p-p65 level)", "setting": "IP-WB in N2a cells", "result": "no change"}
    ]},
    {"protein": "B5", "values": [
      {"measurement": "other: p65 phosphorylation (p-p65 level)", "setting": "IP-WB in N2a cells", "result": "no change"}
    ]},
    {"protein": "B6", "values": [
      {"measurement": "other: p65 phosphorylation (p-p65 level)", "setting": "IP-WB in N2a cells", "result": "no change"}
    ]},
    {"protein": "B7", "values": [
      {"measurement": "other: p65 phosphorylation (p-p65 level)", "setting": "HA IP-WB in N2a cells; glycan lost, control: control N2a cells", "result": "increases"}
    ]}
  ]
}
